# Measurements taken from patent US20230065562A1, “DUAL CONTROLS FOR THERAPEUTIC CELL ACTIVATION OR ELIMINATION” (Bellicum Pharmaceuticals, Inc., priority 2015, published 2023).
# Entries after “also recorded” stand apart in the source; their conditions may differ.
# B1: F404A: modified iCasp9, F404A (protein, UniProt P55211 1-416, looked up, variant F404A)
# chain: MDEADRRLLRRCRLRLVEELQVDQLWDALLSRELFRPHMIEDIQRAGSGSRRDQARQLIIDLETRGSQALPLFISCLEDTGQDMLASFLRTNRQAAKLSKPTLENLTPVVLRPEIRKPEVLRPETPRPVDIGSGGFGDVGALESLRGNADLAYILSMEPCGHCLIINNVNFCRESGLRTRTGSNIDCEKLRRRFSSLHFMVEVKGDLTAKKMVLALLELAQQDHGALDCCVVVILSHGCQASHLQFPGAVYGTDGCPVSVEKIVNIFNGTSCPSLGGKPKLFFIQACGGEQKDHGFEVASTSPEDESPGSNPEPDATPFQEGLRTFDQLDAISSLPTPSDIFVSYSTFPGFVSWRDPKSGSWYVETLDDIFEQWAHSEDLQSLLLRVANAVSVKGIYKQMPGCANFLRKKLFFKTS
# modifications: FKBP12-F36V fusion (iCasp9), CARD deleted
# B2: F406A: modified iCasp9, F406A (protein, UniProt P55211 1-416, looked up, variant F406A)
# chain: MDEADRRLLRRCRLRLVEELQVDQLWDALLSRELFRPHMIEDIQRAGSGSRRDQARQLIIDLETRGSQALPLFISCLEDTGQDMLASFLRTNRQAAKLSKPTLENLTPVVLRPEIRKPEVLRPETPRPVDIGSGGFGDVGALESLRGNADLAYILSMEPCGHCLIINNVNFCRESGLRTRTGSNIDCEKLRRRFSSLHFMVEVKGDLTAKKMVLALLELAQQDHGALDCCVVVILSHGCQASHLQFPGAVYGTDGCPVSVEKIVNIFNGTSCPSLGGKPKLFFIQACGGEQKDHGFEVASTSPEDESPGSNPEPDATPFQEGLRTFDQLDAISSLPTPSDIFVSYSTFPGFVSWRDPKSGSWYVETLDDIFEQWAHSEDLQSLLLRVANAVSVKGIYKQMPGCFNALRKKLFFKTS
# modifications: FKBP12-F36V fusion (iCasp9), CARD deleted
# B3: F406W: modified iCasp9, F406W (protein, UniProt P55211 1-416, looked up, variant F406W)
# chain: MDEADRRLLRRCRLRLVEELQVDQLWDALLSRELFRPHMIEDIQRAGSGSRRDQARQLIIDLETRGSQALPLFISCLEDTGQDMLASFLRTNRQAAKLSKPTLENLTPVVLRPEIRKPEVLRPETPRPVDIGSGGFGDVGALESLRGNADLAYILSMEPCGHCLIINNVNFCRESGLRTRTGSNIDCEKLRRRFSSLHFMVEVKGDLTAKKMVLALLELAQQDHGALDCCVVVILSHGCQASHLQFPGAVYGTDGCPVSVEKIVNIFNGTSCPSLGGKPKLFFIQACGGEQKDHGFEVASTSPEDESPGSNPEPDATPFQEGLRTFDQLDAISSLPTPSDIFVSYSTFPGFVSWRDPKSGSWYVETLDDIFEQWAHSEDLQSLLLRVANAVSVKGIYKQMPGCFNWLRKKLFFKTS
# modifications: FKBP12-F36V fusion (iCasp9), CARD deleted
# B4: G402I: modified iCasp9, G402I (protein, UniProt P55211 1-416, looked up, variant G402I)
# chain: MDEADRRLLRRCRLRLVEELQVDQLWDALLSRELFRPHMIEDIQRAGSGSRRDQARQLIIDLETRGSQALPLFISCLEDTGQDMLASFLRTNRQAAKLSKPTLENLTPVVLRPEIRKPEVLRPETPRPVDIGSGGFGDVGALESLRGNADLAYILSMEPCGHCLIINNVNFCRESGLRTRTGSNIDCEKLRRRFSSLHFMVEVKGDLTAKKMVLALLELAQQDHGALDCCVVVILSHGCQASHLQFPGAVYGTDGCPVSVEKIVNIFNGTSCPSLGGKPKLFFIQACGGEQKDHGFEVASTSPEDESPGSNPEPDATPFQEGLRTFDQLDAISSLPTPSDIFVSYSTFPGFVSWRDPKSGSWYVETLDDIFEQWAHSEDLQSLLLRVANAVSVKGIYKQMPICFNFLRKKLFFKTS
# modifications: FKBP12-F36V fusion (iCasp9), CARD deleted
# B5: N405T: modified iCasp9, N405T (protein, UniProt P55211 1-416, looked up, variant N405T)
# chain: MDEADRRLLRRCRLRLVEELQVDQLWDALLSRELFRPHMIEDIQRAGSGSRRDQARQLIIDLETRGSQALPLFISCLEDTGQDMLASFLRTNRQAAKLSKPTLENLTPVVLRPEIRKPEVLRPETPRPVDIGSGGFGDVGALESLRGNADLAYILSMEPCGHCLIINNVNFCRESGLRTRTGSNIDCEKLRRRFSSLHFMVEVKGDLTAKKMVLALLELAQQDHGALDCCVVVILSHGCQASHLQFPGAVYGTDGCPVSVEKIVNIFNGTSCPSLGGKPKLFFIQACGGEQKDHGFEVASTSPEDESPGSNPEPDATPFQEGLRTFDQLDAISSLPTPSDIFVSYSTFPGFVSWRDPKSGSWYVETLDDIFEQWAHSEDLQSLLLRVANAVSVKGIYKQMPGCFTFLRKKLFFKTS
# modifications: FKBP12-F36V fusion (iCasp9), CARD deleted
# B6: N405A: modified iCasp9, N405A (protein, UniProt P55211 1-416, looked up, variant N405A)
# chain: MDEADRRLLRRCRLRLVEELQVDQLWDALLSRELFRPHMIEDIQRAGSGSRRDQARQLIIDLETRGSQALPLFISCLEDTGQDMLASFLRTNRQAAKLSKPTLENLTPVVLRPEIRKPEVLRPETPRPVDIGSGGFGDVGALESLRGNADLAYILSMEPCGHCLIINNVNFCRESGLRTRTGSNIDCEKLRRRFSSLHFMVEVKGDLTAKKMVLALLELAQQDHGALDCCVVVILSHGCQASHLQFPGAVYGTDGCPVSVEKIVNIFNGTSCPSLGGKPKLFFIQACGGEQKDHGFEVASTSPEDESPGSNPEPDATPFQEGLRTFDQLDAISSLPTPSDIFVSYSTFPGFVSWRDPKSGSWYVETLDDIFEQWAHSEDLQSLLLRVANAVSVKGIYKQMPGCFAFLRKKLFFKTS
# modifications: FKBP12-F36V fusion (iCasp9), CARD deleted
# B7: D330A-N405Q: modified iCasp9 double mutant (SEQ ID NO: 28) (protein)
# chain: GFGDVGALESLRGNADLAYILSMEPCGHCLIINNVNFCRESGLRTRTGSNIDCEKLRRRFSSLHFMVEVKGDLTAKKMVLALLELARQDHGALDCCVVVILSHGCQASHLQFPGAVYGTDGCPVSVEKIVNIFNGTSCPSLGGKPKLFFIQACGGEQKDHGFEVASTSPEDESPGSNPEPDATPFQEGLRTFDQLAAISSLPTPSDIFVSYSTFPGFVSWRDPKSGSWYVETLDDIFEQWAHSEDLQSLLLRVANAVSVKGIYKQMPGCFQFLRKKLFFKTS
# B8: F404W: modified iCasp9, F404W (protein)
# chain: VDGFGDVGALESLRGNADLAYILSMEPCGHCLIINNVNFCRESGLRTRTGSNIDCEKLRRRFSSLHFMVEVKGDLTAKKMVLALLELARQDHGALDCCVVVILSHGCQASHLQFPGAVYGTDGCPVSVEKIVNIFNGTSCPSLGGKPKLFFIQACGGEQKDHGFEVASTSPEDESPGSNPEPDATPFQEGLRTFDQLDAISSLPTPSDIFVSYSTFPGFVSWRDPKSGSWYVETLDDIFEQWAHSEDLQSLLLRVANAVSVKGIYKQMPGCWNFLRKKLFFKTSASRA
# B9: F406T: modified iCasp9, F406T (protein)
# chain: VDGFGDVGALESLRGNADLAYILSMEPCGHCLIINNVNFCRESGLRTRTGSNIDCEKLRRRFSSLHFMVEVKGDLTAKKMVLALLELARQDHGALDCCVVVILSHGCQASHLQFPGAVYGTDGCPVSVEKIVNIFNGTSCPSLGGKPKLFFIQACGGEQKDHGFEVASTSPEDESPGSNPEPDATPFQEGLRTFDQLDAISSLPTPSDIFVSYSTFPGFVSWRDPKSGSWYVETLDDIFEQWAHSEDLQSLLLRVANAVSVKGIYKQMPGCFNTLRKKLFFKTSASRA
# B10: F406L: modified iCasp9, F406L (protein)
# chain: VDGFGDVGALESLRGNADLAYILSMEPCGHCLIINNVNFCRESGLRTRTGSNIDCEKLRRRFSSLHFMVEVKGDLTAKKMVLALLELARQDHGALDCCVVVILSHGCQASHLQFPGAVYGTDGCPVSVEKIVNIFNGTSCPSLGGKPKLFFIQACGGEQKDHGFEVASTSPEDESPGSNPEPDATPFQEGLRTFDQLDAISSLPTPSDIFVSYSTFPGFVSWRDPKSGSWYVETLDDIFEQWAHSEDLQSLLLRVANAVSVKGIYKQMPGCFNLLRKKLFFKTSASRA
# Tested on: HEK293T/16 cells
# Experiment: Secreted alkaline phosphatase (SEAP)-based surrogate killing assay of iCasp9 mutants
# Format: cell-based, human
# Conditions: for Basal Activity (relative to wild type/unmodified Caspase-9): SEAP assay without AP1903; for basal activity: relative SEAP activity Units: no AP1903
# Procedure: Early passage HEK293T/16 cells (ATCC, Manassas, Va.) were maintained in IMDM, GlutaMAX™ (Life Technologies, Carlsbad, Calif.) supplemented with 10% FBS, 100 U/mL penicillin, and 100 […] until transfection in a humidified, 37° C., 5% CO2/95% air atmosphere. Cells in logarithmic-phase growth were transiently transfected with 800 ng to 2 μg of expression plasmid encoding iCasp9 mutants and 500 ng of an expression plasmid encoding SRα promoter driven SEAP per million cells in 15-mL conical tubes. […] GeneJammer® Transfection Reagent at a ratio of 3 μl per ug of plasmid DNA was used to transiently transfect HEK293T/16 cells in the absence of antibiotics. 100 μl or 2 mL of the transfection mixture was added to each well in 96-well or 6-well plate, respectively.
# Briefly, after 65° C. heat denaturation for 45 minutes to reduce background caused by endogenous (and serum-derived) alkaline phosphatases that are sensitive to heat, 5 μl of supernatants was added to 95 μl of PBS and added to 100 μl of substrate buffer, containing 1 μl of 100 mM 4-methylumbelliferyl phosphate (4-MUP; Sigma, St. Louis, Mo.) re-suspended in 2 M diethanolamine. Hydrolysis of 4-MUP by SEAP produces a fluorescent […] with excitation/emission (355/460 nm), which can be easily measured. Assays were performed in black opaque 96-well plates to minimize fluorescence leakage between wells. […] of the mixture was seeded onto each well of a 96-well plate. […] For the assay, 4-methylumbelliferyl phosphate substrate was hydrolyzed by SEAP to 4-methylumbelliferon, a metabolite that can be excited with 364 nm and detected with an emission filter of 448 nm. Since SEAP is used as a marker for cell viability, reduced SEAP reading corresponds with increased iCaspase-9 activities.
Molecule,Basal Activity (relative to wild type/unmodified Caspase-9),further results
B1,lowered basal activity and dead,
B2,lowered basal activity; also recorded: Decreased,
B3,lowered basal activity; also recorded: Decreased,
B4,dead,Basal Activity (relative to wild type/unmodified Caspase-9) (listed as G4021): catalytically inactive
B5,increased basal activity,
B6,no effect,
B7,intermediate; also recorded: Decreased,"basal activity: relative SEAP activity Units (1 μg iCasp9 per million cells): 205772 Units; basal activity: relative SEAP activity Units (2 μg iCasp9 per million cells): 174366 Units; IC50 (AP1903, SEAP screening assay): 0.05 nM"
B8,lowered basal activity; also recorded: Decreased,
B9,lowered basal activity; also recorded: Decreased,
B10,lowered basal activity and dead,
